Where only a bound is given, the exact number is not on record here.

This is an account of results in US20120225055A1 (GlaxoSmithKline, published 2012).

In assay [1] the target is T1, isolated pure human C-reactive protein (CRP) (human, UniProt P02741 19-224).
T1 construct: also called human CRP
T1 sequence (looked up): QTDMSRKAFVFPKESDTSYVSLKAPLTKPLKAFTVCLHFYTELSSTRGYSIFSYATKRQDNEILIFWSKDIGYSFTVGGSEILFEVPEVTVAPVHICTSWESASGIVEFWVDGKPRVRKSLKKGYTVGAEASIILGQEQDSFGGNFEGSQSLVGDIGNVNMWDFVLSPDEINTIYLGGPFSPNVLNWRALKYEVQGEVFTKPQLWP
Put plainly: western blot from SDS-PAGE.

Assay [2] addresses T2, human SAP N-terminal 1-158-homoserine lactone polypeptide (CNBr cleavage fragment) (Homo sapiens, position 159 converted from methionine to homoserine lactone).
T2 construct: Tested in western blot from SDS-PAGE; also called approximately 20 kD fragment
T2 chain: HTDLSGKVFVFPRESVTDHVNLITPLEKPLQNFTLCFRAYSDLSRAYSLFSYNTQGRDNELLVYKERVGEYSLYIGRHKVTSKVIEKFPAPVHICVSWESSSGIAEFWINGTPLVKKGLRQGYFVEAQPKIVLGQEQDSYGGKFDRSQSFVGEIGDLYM
Nature of the assay: western blot from SDS-PAGE. (In general: A western blot detects proteins with antibodies after separation by electrophoresis.)

The target of assay [3] is T3, human SAP 1-140 fragment (chymotrypsin digestion in the absence of calcium) (Homo sapiens).
T3 construct: Tested in western blot from SDS-PAGE; also called residue 1-140 fragment
T3 chain: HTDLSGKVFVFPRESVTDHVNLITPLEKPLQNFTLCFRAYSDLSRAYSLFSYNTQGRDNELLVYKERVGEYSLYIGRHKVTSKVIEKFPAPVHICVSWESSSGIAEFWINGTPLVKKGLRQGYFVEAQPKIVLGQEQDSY
Nature of the assay: western blot from SDS-PAGE.

Assay [4] addresses T4, human serum amyloid P component (SAP), purified (Homo sapiens, UniProt P02743 20-223).
T4 construct: Immobilised directly, amine-coupled, captured on O-phosphoethanolamine or by sheep polyclonal antibody, depending on the assay; also called human SAP; native human SAP
Nature of the assay: direct ELISA, human SAP coated at 5 µg/mL, detection with HRP rabbit anti-mouse IgG. As for the experimental part: 1 μg/mL or 5 μg/mL human SAP was directly immobilised onto an ELISA plate and blocked with 1% BSA/TBS plus 0.05% TWEEN20. Anti-SAP antibodies from purified material were titrated across the plate. Bound antibody was detected by treatment with a horse-radish peroxidase (HRP)-conjugated rabbit-anti-mouse IgG antibody (Dako, P0260). The ELISA was developed using O-phenylenediamine dihydrochloride (OPD) peroxidase substrate (Sigma, P9187).
(In an ELISA, binding on a coated surface is turned into a signal by an enzyme label.)

In assay [5] the target is T4, human serum amyloid P component (SAP), …. Nature of the assay: Biacore (BIAcoreX), human SAP covalently immobilised on the chip; mean and SD of 3 replicates. For orientation: Surface plasmon resonance follows binding to a sensor surface in real time, without labels.
Assay [6] has the same target. Nature of the assay: Biacore, human SAP captured on immobilised O-phosphoethanolamine (CM5 chip, calcium), bivalent analyte model. Here is the method:
(§1) O-phosphoethanolamine was immobilised on a Biacore CM5 chip by primary amine coupling in accordance with the manufacturer's instructions. Human SAP was then captured on the surface in the presence of calcium chloride, in order to replicate in the Biacore system in vitro, the precise orientation of SAP molecules bound to amyloid fibrils in vivo. Anti SAP antibodies were then passed over this surface at 256, 64, 16, 4, 1 nM and a binding sensorgrams obtained. Analysis was carried out at 25° C. using 4% BSA, 10 mM Tris, 140 mM NaCl, 2 mM CaCl₂, 0.05% surfactant P20, 0.02% Na N₃, pH 8.0 as running buffer. […] Data generated were double referenced with a buffer injection over the human SAP surface and analyzed using the bivalent analyte model in the Biacore T100 evaluation software.

For assay [7] the target is unchanged. Put plainly: Biacore, human SAP captured on immobilised O-phosphoethanolamine (CM5 chip, calcium), bivalent analyte model; kd outside the Biacore measurement range. As for the experimental part:
as §1

For assay [8] the target is unchanged. Nature of the assay: Biacore (BIAcoreX), human SAP covalently immobilised on the chip; mean and SD of 3 replicates; human SAP covalently immobilised on the chip; mean of 3 replicates.
For assay [9] the target is unchanged. Put plainly: competition ELISA, human SAP coated at 5 µg/mL, constant SAP-E chimera (cSAP-E) as competitor, bound chimera detected with goat anti-human kappa light chain peroxidase conjugate. The text has this:
A constant concentration of chimeric anti-SAP mAb was mixed with serial diluted (1:1) amounts of mouse anti-SAP mAbs. Plates were washed and the amount of chimeric antibody bound to the immobilised human SAP was detected using goat anti-human Kappa Light chain peroxidase conjugate (Sigma, A7164). The ELISA was developed using O-phenylenediamine dihydrochloride (OPD) peroxidase substrate (Sigma, P9187).

B1: SAP-E mouse monoclonal anti-human SAP antibody (antibody, mouse IgG2a, V domains shown)
VH: QASLQQSGTELVRSGASVKMSCKASGFTFATYNMHWIKQTPGQGLEWIGYIYPGDGNANYNQQFKGKATLTADTSSNTAYMQISSLTSEDSAVYFCARGDFDYDGGYYFDSWGQGTTLTVSS
VL: DIQMTQSPASLSASVGETVTITCRASENIYSYLAWYQQKQGRSPQLLVHNAKTLAEGVPSRVSGSGSGTHFSLKINGLQPEDFGNYYCQHHYGAPLTFGAGTKLELK
notes: also called Mouse SAP-E; murine SAP-E
Take B1: the binding result is “no binding (tested: 500 ng and 100 ng loaded)” in assay [1]; “binds” in [2]; “binds” in assay [3]. In addition, the EC50 (read off the curve) (in general, the concentration that produces a half-maximal response) in assay [4] is around 0.04 µg/mL. The affinity in [5], expressed as Kd, was 5 nM. In addition, the koff (commonly a measure of how fast the partners let go of each other) was 6e-05 s⁻¹ in assay [5] and below 1e-05 s⁻¹ in assay [7]. Moreover, the association rate constant (kon) (in general, a measure of how fast the partners come together) in [6] turned out to be 31500 M⁻¹ s⁻¹; in [8] it was 20000 M⁻¹ s⁻¹. For the same molecule, the “IC50 (read off the curve)” value in [9] was around 2 µg/mL.
